From patent US20080095778A1, “Treatment Of Fungal Infections” (priority 2004, published 2008)

How the values were obtained:
A. fumigatus = assay: Broth microdilution (NCCLS M38-A) checkerboard assay, A. fumigatus; assay type: cell-based, Aspergillus fumigatus; conditions: for MIC-0 of each agent, Alone: Table 1, no growth endpoint; for MIC-0 of each agent, Combination: amphotericin B and Mycograb in combination; for FIC: MIC in combination divided by MIC alone
Protocol: (§1) Stock solutions of amphotericin B (AMB, Sigma), caspofungin (Caspo), voriconazole (VOR) and itraconazole (ITZ) were prepared according to the National Committee for Clinical Laboratory Standards (M38-A) in RPMI 1640 with glutamine broth medium, buffered to pH 7.0 with […] morpholinopropanesulphonic acid (MOPS). AMB stock solutions were prepared as a 100× series in 100% dimethyl sulfoxide (DMSO) and diluted in medium to a concentration range of 0.03125 to 16 μg/ml. Caspofungin, voriconazole and itraconazole were tested at a concentration range of 0.03125 to 1024 μg/ml, and Mycograb® (NeuTec Pharma plc) at a concentration range of 0.25 to 1024 μg/ml.
(§2) Clinical isolates of Aspergillus fumigatus (2), A. flavus (1), A. terreus (1) and A. niger (1) were obtained from the Department on Microbiology, Manchester Royal Infirmary, Manchester, UK.
(§3) An inoculum suspension was prepared in buffered RPMI with glutamine medium by probing colonies from a 7 day old Sabouraud plate. The suspension was adjusted to 0.09-0.11 (80% to 82% transmittance) for Aspergillus species, 0.15-0.17 (68% to 70% transmittance). The inoculum was diluted a further 1:2 when added to the antifungal agents in the assay (final inoculum (0.4×10^4 to 0.5×10^4). For AMB and Mycograb®, either alone or in combination, the endpoint was determined as the concentration to produce no growth (MIC-0). Microtitre plates were incubated at 37° C. without agitation for 48 hours for Aspergillus species. For caspofungin, voriconazole and itraconazole, either alone or in combination with Mycograb® antibody, the MIC endpoint was determined as the concentration resulting in a prominent decrease in turbidity (≧50% growth inhibition, MIC-2) compared to the growth control (Keele et al. 2001; Espinel-Ingroff 2003). The final inhibitory concentration (FIC) was calculated for each drug by dividing the MIC in the presence of the second drug by the MIC in its absence. For each combination, two fractions were produced which were summated to produce the fractional final inhibitory concentration. Synergy was defined by value of ≦0.5, indifference was defined by a value of >0.5 to <4.0, and antagonism was defined by a value of ≧4.0 (Matthews et al., 2003).

A. fumigatus CI2 = assay: Broth microdilution (NCCLS M38-A) checkerboard assay, A. fumigatus CI2; assay type: cell-based, Aspergillus fumigatus; conditions: for MIC-0 of each agent, Alone: Table 1, no growth endpoint; for MIC-0 of each agent, Combination: amphotericin B and Mycograb in combination; for FIC: MIC in combination divided by MIC alone
Protocol: as §1, §2, §3

A. niger = assay: Broth microdilution (NCCLS M38-A) checkerboard assay, A. niger; assay type: cell-based; conditions: for MIC-0 of each agent, Alone: Table 1, no growth endpoint; for MIC-0 of each agent, Combination: amphotericin B and Mycograb in combination; for FIC: MIC in combination divided by MIC alone
Protocol: as §1, §2, §3

A. flavus = assay: Broth microdilution (NCCLS M38-A) checkerboard assay, A. flavus; assay type: cell-based; conditions: for MIC-0 of each agent, Alone: Table 1, no growth endpoint; for MIC-0 of each agent, Combination: amphotericin B and Mycograb in combination; for FIC: MIC in combination divided by MIC alone
Protocol: as §1, §2, §3

A. terreus = assay: Broth microdilution (NCCLS M38-A) checkerboard assay, A. terreus; assay type: cell-based; conditions: for MIC-0 of each agent, Alone: Table 1, no growth endpoint; for MIC-0 of each agent, Combination: amphotericin B and Mycograb in combination; for FIC: MIC in combination divided by MIC alone
Protocol: as §1, §2, §3

Aspergillus species = assay: Antifungal activity with Mycograb antibody, summary over the Aspergillus species examined; assay type: cell-based; conditions: summary of Tables 1-4; for Antifungal activity / surprising effect when used in combination with Mycograb antibody: agent combined with Mycograb antibody
Protocol: as §3

Candida strains = conditions: WO 01/76627, cited from earlier work
[1] = amphotericin B and Mycograb combination
[2] = Table 2, ≧50% growth inhibition endpoint
[3] = Table 3, ≧50% growth inhibition endpoint
[4] = Table 4, ≧50% growth inhibition endpoint
[5] = caspofungin and Mycograb in combination
[6] = itraconazole and Mycograb in combination
[7] = voriconazole and Mycograb in combination

With `C[C@@H]1[C@H](O)[C@@H](C)/C=C/C=C/C=C/C=C/C=C/C=C/C=C/[C@H](O[C@@H]2O[C@H](C)[C@@H](O)[C@H](N)[C@@H]2O)C[C@@H]2O[C@](O)(C[C@@H](O)C[C@@H](O)[C@H](O)CC[C@@H](O)C[C@@H](O)CC(=O)O[C@H]1C)C[C@H](O)[C@H]2C(=O)O` [AMB, amphotericin B] the “MIC-0 of each agent, Alone” value (A. fumigatus) was 2 µg/mL, the FICI (A. fumigatus; [1]) was 0.5 and the Outcome (A. fumigatus; [1]) was “Indifferent (indifference was defined by a value of >0.5 to <4.0)”. For the same molecule, the “MIC-0 of each agent, Combination” value (A. fumigatus) was 1 µg/mL, the “MIC-0 of each agent, Alone” value (A. fumigatus CI2) was 2 µg/mL and the FICI (A. fumigatus CI2; [1]) was 0.531. For the same molecule, the Outcome (A. fumigatus CI2; [1]) was “Indifferent (indifference was defined by a value of >0.5 to <4.0)”, the “MIC-0 of each agent, Combination” value (A. fumigatus CI2) was 1 µg/mL and the “MIC-0 of each agent, Alone” value (A. niger) was 2 µg/mL. The FICI (A. niger; [1]) was 0.5, the Outcome (A. niger; [1]) was “Indifferent (indifference was defined by a value of >0.5 to <4.0)” and the “MIC-0 of each agent, Combination” value (A. niger) was 1 µg/mL. The “MIC-0 of each agent, Alone” value (A. flavus) was 4 µg/mL, the FICI (A. flavus; [1]) was 2 and the Outcome (A. flavus; [1]) was “Indifferent (indifference was defined by a value of >0.5 to <4.0)”. The “MIC-0 of each agent, Combination” value (A. flavus) was 4 µg/mL, the “MIC-0 of each agent, Alone” value (A. terreus) was 4 µg/mL and the FICI (A. terreus; [1]) was 2. For the same molecule, the Outcome (A. terreus; [1]) was “Indifferent (indifference was defined by a value of >0.5 to <4.0)”, the “MIC-0 of each agent, Combination” value (A. terreus) was 4 µg/mL and the FIC (A. terreus; amphotericin B and Mycograb) was 1 µg/mL. For the same molecule, the “Antifungal activity / surprising effect when used in combination with Mycograb antibody” value (Aspergillus species) was “not observed” and the “Efficacy of antifungal agent in the presence of the antibody” value (Candida strains; wide variety of fungal strains (e.g. Candida species)) was “significantly enhanced”.

In the case of `OC(Cn1cncn1)(Cn1cncn1)c1ccc(F)cc1F` [fluconazole], the “Antifungal activity / surprising effect when used in combination with Mycograb antibody” value (Aspergillus species) is given as “not observed” and the “Synergy in combination with Mycograb antibody against Candida strains” value (Candida strains; prior finding) is given as “little synergy”.

B1: Mycograb: antibody specific for a fungal hsp90 stress protein epitope (SEQ ID NO: 1), comprising the sequence of SEQ ID NO: 3, expressed in E. coli (protein)
scFv: HMAEVQLVESGAEVKKPGESLRISCKGSGCIISSYWISWVRQMPGKGLEWMGKIDPGDSYINYSPSFQGHVTISADKSINTAYLQWNSLKASDTAMYYCARGGRDFGDSFDYWGQGTLVTVSSGGGGSGGGGSGGGGSDVVMTQSPSFLSAFVGDRITITCRASSGISRYLAWYQQAPGKAPKLLIYAASTLQTGVPSRFSGSGSGTEFTLTINSLQPEDFATYYCQHLNSYPLTFGGGTKVDIKRAA
modifications: Synthetically generated peptide
With B1 the “MIC-0 of each agent, Alone” value (A. fumigatus) was 512 µg/mL, the “MIC-2 of each agent, Alone” value (A. fumigatus; [2]) was 1024 µg/mL and the “MIC-2 of each agent, Alone” value (A. fumigatus; [3]) was 1024 µg/mL. For the same molecule, the “MIC-2 of each agent, Alone” value (A. fumigatus; [4]) was 1024 µg/mL, the “MIC-0 of each agent, Combination” value (A. fumigatus) was 4 µg/mL and the FIC (A. fumigatus; amphotericin B and Mycograb) was 0.01. For the same molecule, the “MIC-2 of each agent, Combination” value (A. fumigatus; [5]) was 32 µg/mL, the FIC (A. fumigatus; caspofungin and Mycograb) was 0.062 and the “MIC-2 of each agent, Combination” value (A. fumigatus; [6]) was 16 µg/mL. For the same molecule, the FIC (A. fumigatus; itraconazole and Mycograb) was 0.016, the “MIC-2 of each agent, Combination” value (A. fumigatus; [7]) was 0.25 µg/mL and the FIC (A. fumigatus; voriconazole and Mycograb) was 0.0002. For the same molecule, the “MIC-0 of each agent, Alone” value (A. fumigatus CI2) was 512 µg/mL, the “MIC-2 of each agent, Alone” value (A. fumigatus CI2; [2]) was 1024 µg/mL and the “MIC-2 of each agent, Alone” value (A. fumigatus CI2; [3]) was 1024 µg/mL. For the same molecule, the “MIC-2 of each agent, Alone” value (A. fumigatus CI2; [4]) was 1024 µg/mL, the “MIC-0 of each agent, Combination” value (A. fumigatus CI2) was 16 µg/mL and the FIC (A. fumigatus CI2; amphotericin B and Mycograb) was 0.031. For the same molecule, the “MIC-2 of each agent, Combination” value (A. fumigatus CI2; [5]) was 16 µg/mL, the FIC (A. fumigatus CI2; caspofungin and Mycograb) was 0.062 and the “MIC-2 of each agent, Combination” value (A. fumigatus CI2; [6]) was 8 µg/mL. The FIC (A. fumigatus CI2; itraconazole and Mycograb) was 0.008, the “MIC-2 of each agent, Combination” value (A. fumigatus CI2; [7]) was 0.25 µg/mL and the FIC (A. fumigatus CI2; voriconazole and Mycograb) was 0.0002. For the same molecule, the “MIC-0 of each agent, Alone” value (A. niger) was 512 µg/mL, the “MIC-2 of each agent, Alone” value (A. niger; [2]) was 256 µg/mL and the “MIC-2 of each agent, Alone” value (A. niger; [3]) was 16 µg/mL. The “MIC-2 of each agent, Alone” value (A. niger; [4]) was 16 µg/mL, the “MIC-0 of each agent, Combination” value (A. niger) was 4 µg/mL and the FIC (A. niger; amphotericin B and Mycograb) was 0.01. The “MIC-2 of each agent, Combination” value (A. niger; [5]) was 0.0625 µg/mL, the FIC (A. niger; caspofungin and Mycograb) was 0.0001 and the “MIC-2 of each agent, Combination” value (A. niger; [6]) was 4 µg/mL. The FIC (A. niger; itraconazole and Mycograb) was 0.25, the “MIC-2 of each agent, Combination” value (A. niger; [7]) was 16 µg/mL and the FIC (A. niger; voriconazole and Mycograb) was 1. The “MIC-0 of each agent, Alone” value (A. flavus) was 512 µg/mL, the “MIC-2 of each agent, Alone” value (A. flavus; [2]) was 512 µg/mL and the “MIC-2 of each agent, Alone” value (A. flavus; [3]) was 512 µg/mL. For the same molecule, the “MIC-2 of each agent, Alone” value (A. flavus; [4]) was 512 µg/mL, the “MIC-0 of each agent, Combination” value (A. flavus) was 512 µg/mL and the FIC (A. flavus; amphotericin B and Mycograb) was 1. For the same molecule, the “MIC-2 of each agent, Combination” value (A. flavus; [5]) was 0.0625 µg/mL, the FIC (A. flavus; caspofungin and Mycograb) was 0.0001 and the “MIC-2 of each agent, Combination” value (A. flavus; [6]) was 0.25 µg/mL. The FIC (A. flavus; itraconazole and Mycograb) was 0.0005, the “MIC-2 of each agent, Combination” value (A. flavus; [7]) was 0.25 µg/mL and the FIC (A. flavus; voriconazole and Mycograb) was 0.0005. For the same molecule, the “MIC-0 of each agent, Alone” value (A. terreus) was 512 µg/mL, the “MIC-2 of each agent, Alone” value (A. terreus; [2]) was 1024 µg/mL and the “MIC-2 of each agent, Alone” value (A. terreus; [3]) was 1024 µg/mL. The “MIC-2 of each agent, Alone” value (A. terreus; [4]) was 1024 µg/mL, the “MIC-0 of each agent, Combination” value (A. terreus) was 512 µg/mL and the FIC (A. terreus; amphotericin B and Mycograb) was 1 µg/mL. For the same molecule, the “MIC-2 of each agent, Combination” value (A. terreus; [5]) was 32 µg/mL, the FIC (A. terreus; caspofungin and Mycograb) was 0.031 µg/mL and the “MIC-2 of each agent, Combination” value (A. terreus; [6]) was 32 µg/mL. For the same molecule, the FIC (A. terreus; itraconazole and Mycograb) was 0.031 µg/mL, the “MIC-2 of each agent, Combination” value (A. terreus; [7]) was 0.25 µg/mL and the FIC (A. terreus; voriconazole and Mycograb) was 0.0002 µg/mL. For the same molecule, the “Growth inhibition by antibody on its own” value (Aspergillus species; Mycograb antibody alone) was “able to inhibit growth of certain Aspergillus species”.
